Ends that are not written are not given here. HA = hyaluronic acid (HA-TBA), bound to the peptide's terminal amine

In the assay the target is Flt1-Fc (R&D systems, Minneapolis, Minn.) (UniProt P17948). Briefly: competition ELISA, VEGF165-coated plate, 500 ng/mL Flt1-Fc, conjugate at rising peptide concentration. On the technique in general: ELISA stands for enzyme-linked immunosorbent assay.
Sequence of Flt1-Fc (R&D systems, Minneapolis, Minn.) (P17948 27-756 limits assumed): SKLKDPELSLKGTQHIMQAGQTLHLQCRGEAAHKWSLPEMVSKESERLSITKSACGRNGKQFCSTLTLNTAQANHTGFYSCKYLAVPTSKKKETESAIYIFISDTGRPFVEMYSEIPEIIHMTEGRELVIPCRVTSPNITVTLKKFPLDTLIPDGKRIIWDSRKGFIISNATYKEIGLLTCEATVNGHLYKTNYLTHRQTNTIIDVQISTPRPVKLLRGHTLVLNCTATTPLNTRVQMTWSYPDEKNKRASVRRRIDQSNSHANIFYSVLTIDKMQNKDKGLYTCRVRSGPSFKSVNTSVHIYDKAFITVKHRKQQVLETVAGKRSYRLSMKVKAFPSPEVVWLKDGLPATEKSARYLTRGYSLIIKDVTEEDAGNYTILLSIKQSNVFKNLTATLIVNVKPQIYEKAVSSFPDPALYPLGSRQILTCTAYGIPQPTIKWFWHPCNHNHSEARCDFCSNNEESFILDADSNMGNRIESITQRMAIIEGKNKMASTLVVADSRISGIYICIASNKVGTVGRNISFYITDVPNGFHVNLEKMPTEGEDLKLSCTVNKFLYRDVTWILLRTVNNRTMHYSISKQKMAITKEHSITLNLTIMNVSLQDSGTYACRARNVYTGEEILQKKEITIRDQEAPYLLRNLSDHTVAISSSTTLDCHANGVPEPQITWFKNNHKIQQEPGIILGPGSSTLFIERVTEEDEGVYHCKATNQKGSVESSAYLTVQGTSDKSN

Regarding {HA}-GGNQWFI (also: 20 peptides conjugated per HA-TBA molecule) [hyaluronic acid-peptide conjugate with a lower peptide content of Preparation Example 3 (HA-GGNQWFI)], the inhibition of the bonding between VEGF165 and Flt1-Fc (luminescence, positive control = 100%) is 32%.
